We go through two substances from PMC8599769.

Read-outs that look alike come from different tables or passages of the source.

In the series the target is T1, PhoB~P (phosphorylated response regulator PhoB) (Escherichia coli) (UniProt P0AFJ5).
T1 sequence: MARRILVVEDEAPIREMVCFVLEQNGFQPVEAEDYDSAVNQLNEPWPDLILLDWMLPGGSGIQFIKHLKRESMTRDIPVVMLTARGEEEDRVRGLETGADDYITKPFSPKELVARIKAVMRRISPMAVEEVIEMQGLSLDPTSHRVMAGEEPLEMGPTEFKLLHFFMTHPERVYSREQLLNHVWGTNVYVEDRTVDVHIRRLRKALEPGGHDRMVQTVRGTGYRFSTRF
The series is described as follows: EMSA.

A word on the Kd: it is the constant that tells how readily two partners part at equilibrium. On to “ATCACATGGTCCTGCTGGAGTTCGTGACCGCCGCCGGGATCACTCTCGGCATGGACGAGCTGTACAAGTAGCTGACCCGGGGAGGGTCGTTCTGTCATAAAACTGTCATATTCCACCGGGAAGGCTTGAGCTCCTAGATACATTCAAATATGTATCCGCTCATGAGACAATAACCCTGATA (double strand) [Decoy DNA (1 PhoB consensus site)]”, for which the Kd stood at 200 nM.

phnC promoter PhoB site DNA: where the note is “cited from earlier work”, the Kd was 1500 nM.
